Assay results from patent US20230077100A1 (published 2023).

How the values were obtained:
[1] = biological target: T1, HPV16 E6 peptide on HLA-A*02:01 (human); assay: peptide titration on T2 cells, E:T 1:1, overnight, intracellular IFN-γ; full-length, on cells
T1 peptide: TIHDIILECV

[2] = biological target: T1, HPV16 E6 peptide on HLA-A*02:01; assay: peptide titration on APCs, E:T 1:1, overnight, intracellular IFN-γ in CD4+ TCR-T cells; full-length, on cells
[3] = biological target: T1, HPV16 E6 peptide on HLA-A*02:01; assay: peptide titration on APCs, E:T 1:1, overnight, intracellular IFN-γ in CD8+ TCR-T cells; full-length, on cells

B1: E202 TCR (TCR, V domains shown)
Valpha: AQTVTQSQPEMSVQEAETVTLSCTYDTSESDYYLFWYKQPPSRQMILVIRQEAYKQQNATENRFSVNFQKAAKSFSLKISDSQLGDAAMYFCAYRDSRGSTLGRLYFGRGTQLTVWP
Vbeta: DVKVTQSSRYLVKRTGEKVFLECVQDMDHENMFWYRQDPGLGLRLIYFSYDVKMKEKGDIPEGYSVSREKKERFSLILESASTNQTSMYLCASSLWGRKNTEAFFGQGTRLTVV
EC50 of peptide [1]: 0.045 µg/mL

B2: E203 TCR (TCR, V domains shown)
Valpha: LAKTTQPISMDSYEGQEVNITCSHNNIATNDYITWYQQFPSQGPRFIIQGYKTKVTNEVASLFIPADRKSSTLSLPRVSLSDTAVYYCLALSMDSSYKLIFGSGTRLLVRP
Vbeta: DAGVIQSPRHEVTEMGQEVTLRCKPISGHDYLFWYRQTMMRGLELLIYFNNNVPIDDSGMPEDRFSAKMPNASFSTLKIQPSEPRDSAVYFCASSLAQRSAPEAFFGQGTRLTVV
EC50 of peptide [2]: 17.6 ng/mL
EC50 of peptide [3]: 1.04 ng/mL

B3: E205 TCR (TCR, V domains shown)
Valpha: TQLLEQSPQFLSIQEGENLTVYCNSSSVFSSLQWYRQEPGEGPVLLVTVVTGGEVKKLKRLTFQFGDARKDSSLHITAAQPGDTGLYLCAGVSARLMFGDGTQLVVKP
Vbeta: SAVISQKPSRDICQRGTSLTIQCQVDSQVTMMFWYRQQPGQSLTLIATANQGSEATYESGFVIDKFPISRPNLTFSTLTVSNMSPEDSSIYLCSAVGGPKVPGAEAFFGQGTRLTVV
EC50 of peptide [2]: 10.4 ng/mL
EC50 of peptide [3]: 0.917 ng/mL
